One molecule from paper PMC8248823, “Phosphorus and sulfur SAD phasing of the nucleic acid-bound DNA-binding domain of interferon regulatory factor 4” can be followed below.

The target in the data set is T1, IRF4 DBD (human, UniProt Q15306 20-139).
T1 sequence: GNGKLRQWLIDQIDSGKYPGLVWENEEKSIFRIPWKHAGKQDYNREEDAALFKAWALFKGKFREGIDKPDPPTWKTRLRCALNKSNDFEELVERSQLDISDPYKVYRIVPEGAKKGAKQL
The data set can be described thus: X-ray crystallography (native P/S SAD); three IRF4 DBD molecules on one ISRE; DNA:protein 1.2:1 mixed before crystallization; Crystallization complex: protein in 20 mM Tris-HCl pH 8, 500 mM NaCl, 0.5 mM TCEP (gel-filtration buffer); DNA:protein 1.2:1, 1 h at 277 K; crystallization conditions not in material. The following applies: protein: recombinant; tags: N-terminal 6xHis; chain copies: 3; 5' overhang 1 nt on each strand (A / T), 20 bp duplex.

B1: ISRE 21-mer (dsDNA)
DNA 1: AATAAAAGAAACCGAAAGTAA
DNA 2: TTTACTTTCGGTTTCTTTTAT
For the molecule B1, the binding result was “binds”.
